Experimental data: the supplement of paper PMC10126150
± gives the standard deviation of the averaged measurements.
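Further: ATP exposure 15 min at 22 °C before imaging.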

Each sequence was assayed on ATP (assay: switch fluorescence ratio, 500 uM ATP over buffer (Cy3 cluster intensity, sum of 5 cycles each) (fold (ratio)); higher = stronger signal-on switching upon ATP binding; sequences stand for … in TCGTCGGCAGCGTCAGATGTGTATAAGAGACAGTTTTTTTTTTTTTTTTTTTTTTTTT…TC). Settings: aptamer strand: ATP DNA aptamer (quencher-CACCTGGGGGAGTATTGCGGAGGAAGG + anchor), 100 nM annealed; ATP concentration: 500 uM.
Summary of the method: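 Clusters carrying Cy3-labelled switching strands on a modified Illumina MiSeq flow-cell were annealed to 100 nM quencher-labelled ATP aptamer and imaged in selection buffer. They were imaged again after 15 min with 500 uM ATP at 22 °C, over five buffer/ATP cycles with NaOH stripping and re-annealing in between. For each cluster, the fluorescence ratio is the summed Cy3 intensity of the target cycles divided by that of the buffer cycles, averaged per switch-domain sequence. Clusters outside 100-1000 RFU were left out.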
TCGGCCAGAG gave a switch fluorescence ratio of 1.01 ± 0.012.
In the case of TTTGAGCCAC, the switch fluorescence ratio is reported as 1.05 ± 0.0095.
Sequence GGTTTTTATT has a switch fluorescence ratio of 0.992 ± 0.0092.
TCAGGAAAGG was tested, and the switch fluorescence ratio was 1.003 ± 0.0027.
In the case of AAGTGCCTGC, the switch fluorescence ratio is reported as 1.015 ± 0.0056.
TGGGACCAGG was tested, and the switch fluorescence ratio was 1.05 ± 0.03.
With GTTGAGAGTT the switch fluorescence ratio was 1.01 ± 0.015.
TCGGTTAAGT gave a switch fluorescence ratio of 1.02 ± 0.031.
CGAGAGGAGT showed a switch fluorescence ratio of 0.997 ± 0.014.
Work on GGGACCATAT yielded a switch fluorescence ratio of 1.03 ± 0.015.
With GATTGCTTGA the switch fluorescence ratio was 0.999 ± 0.034.
For GCGATTGGGG, the switch fluorescence ratio was 0.9705 ± 0.0044.
GGATGTGAGC gave a switch fluorescence ratio of 0.983 ± 0.021.
GGGAACGGTA gave a switch fluorescence ratio of 0.9955 ± 0.0076.
For GGATGACTTT, the switch fluorescence ratio was 0.9981 ± 0.0071.
For GTTTGGTAGT, the switch fluorescence ratio was 0.979 ± 0.038.
TGTGGTATTA gave a switch fluorescence ratio of 0.976 ± 0.036.
TGCCTGGGTG showed a switch fluorescence ratio of 2.74 ± 1.1.
In the case of CGCGTACATT, the switch fluorescence ratio is reported as 1.05 ± 0.077.
For GGGGCTAGAG, the switch fluorescence ratio was 1.4 ± 0.77.
In the case of GGGAGACTCG, the switch fluorescence ratio is reported as 0.96678 ± 0.00026.
TTATCCAGCT showed a switch fluorescence ratio of 1.01 ± 0.012.
In the case of TTTCAGCCGG, the switch fluorescence ratio is reported as 1.04 ± 0.034.
With TGCATTGGG the switch fluorescence ratio was 0.975 ± 0.058.
In the case of TTTGGGCATA, the switch fluorescence ratio is reported as 1.16 ± 0.19.
AATGTTTTGG gave a switch fluorescence ratio of 0.9952 ± 0.0081.
TCCCCCACAG gave a switch fluorescence ratio of 2.05 ± 0.22.
GGGCGGTTTG gave a switch fluorescence ratio of 0.971 ± 0.046.
CGAGGTGGCG gave a switch fluorescence ratio of 0.958 ± 0.06.
TGAGATCGGC was tested, and the switch fluorescence ratio was 0.992 ± 0.042.
TTCATAGGGG was tested, and the switch fluorescence ratio was 0.988 ± 0.015.
TTTCGTACTC gave a switch fluorescence ratio of 1.09 ± 0.13.
ATAGACAGAC showed a switch fluorescence ratio of 1.136 ± 0.0095.
For AGTTGCGTTA, the switch fluorescence ratio was 0.963 ± 0.025.
In the case of GTAAAAGTTG, the switch fluorescence ratio is reported as 1 ± 0.026.
In the case of AGGACGTCCA, the switch fluorescence ratio is reported as 0.989 ± 0.02.
CTAATTTACA was tested, and the switch fluorescence ratio was 1.081 ± 0.0097.
Sequence TTTGCAATG has a switch fluorescence ratio of 2.22 ± 1.6.
In the case of CCGGGGTTTT, the switch fluorescence ratio is reported as 1.11 ± 0.22.
Sequence AAGTTACTGT has a switch fluorescence ratio of 1.126 ± 0.006.
Work on CGTTTGGGTC yielded a switch fluorescence ratio of 1.01 ± 0.031.
Sequence ATGGGTATGT has a switch fluorescence ratio of 1.01 ± 0.043.
Sequence TTTGTCGTAT has a switch fluorescence ratio of 0.996 ± 0.014.
TGGAGGGAAG gave a switch fluorescence ratio of 1.03 ± 0.059.
For GAATTTGAGC, the switch fluorescence ratio was 1.03 ± 0.02.
Sequence GGACGGCGGG has a switch fluorescence ratio of 1 ± 0.034.
TGTGGCAAGA showed a switch fluorescence ratio of 1.14 ± 0.14.
AGAGGGGGG gave a switch fluorescence ratio of 0.99 ± 0.017.
Work on CATAGGTTGC yielded a switch fluorescence ratio of 0.983 ± 0.041.
With TGTTTAGCTT the switch fluorescence ratio was 1.024 ± 0.0066.
TTTGGGTAAG was tested, and the switch fluorescence ratio was 1 ± 0.024.
ATGGAGGCGG gave a switch fluorescence ratio of 1.04 ± 0.04.
TTTGAAACCA showed a switch fluorescence ratio of 1.01 ± 0.024.
CACGCAAGTG showed a switch fluorescence ratio of 1.03 ± 0.018.
CTGATTGGGC showed a switch fluorescence ratio of 1 ± 0.013.
TTACGGTATG gave a switch fluorescence ratio of 1.09 ± 0.035.
Work on ATAATAGGCG yielded a switch fluorescence ratio of 0.985 ± 0.0028.
In the case of GGTCAGGGGC, the switch fluorescence ratio is reported as 1.08 ± 0.017.
With TATTTAGGCG the switch fluorescence ratio was 0.99 ± 0.064.
TGGAGGGCTC was tested, and the switch fluorescence ratio was 1.01 ± 0.025.
With GTTTAATATT the switch fluorescence ratio was 0.99 ± 0.026.
GACGATTGCG was tested, and the switch fluorescence ratio was 1.01 ± 0.032.
Work on TTGGGTAGGC yielded a switch fluorescence ratio of 0.985 ± 0.022.
With AGGCTCCGAG the switch fluorescence ratio was 1.03 ± 0.011.
With TGTTTCTCTG the switch fluorescence ratio was 1.01 ± 0.023.
Work on AGAGGCCATC yielded a switch fluorescence ratio of 0.9831 ± 0.0098.
With GTTGTGGGCG the switch fluorescence ratio was 0.977 ± 0.12.
In the case of CGTGGTGTGT, the switch fluorescence ratio is reported as 0.992 ± 0.0011.
Work on GTTTTTTAGG yielded a switch fluorescence ratio of 0.978 ± 0.0056.
For TATGAAAGTA, the switch fluorescence ratio was 0.999 ± 0.033.
In the case of GAGCGGTTTG, the switch fluorescence ratio is reported as 0.998 ± 0.017.
With ATCGGGGTCG the switch fluorescence ratio was 1.05 ± 0.038.
Sequence GGTTAAGTAG has a switch fluorescence ratio of 1.004 ± 0.0075.
For ACCATTAAAA, the switch fluorescence ratio was 1.004 ± 0.0029.
TGCAAAGAAA gave a switch fluorescence ratio of 1.15 ± 0.12.
TCCGGGAATT gave a switch fluorescence ratio of 1.02 ± 0.021.
With GGTTTAAGGC the switch fluorescence ratio was 0.993 ± 0.047.
Sequence TCCAGGGGTC has a switch fluorescence ratio of 1.38 ± 0.13.
ACCCGCACTT gave a switch fluorescence ratio of 1.82 ± 0.24.
In the case of GGTCGCAACC, the switch fluorescence ratio is reported as 1.04 ± 0.049.
TGGGTTGGCG was tested, and the switch fluorescence ratio was 1.04 ± 0.028.
GGATGGAGGT was tested, and the switch fluorescence ratio was 1 ± 0.023.
Sequence TGAGGTCATT has a switch fluorescence ratio of 0.989 ± 0.028.
Sequence AGTTTTTCCA has a switch fluorescence ratio of 1.02 ± 0.031.
AGCTTTTTGA gave a switch fluorescence ratio of 0.966 ± 0.025.
GTCGGTATTT showed a switch fluorescence ratio of 0.986 ± 0.03.
For CGGGGTGCTG, the switch fluorescence ratio was 1.03 ± 0.03.
AGAATGGTTT gave a switch fluorescence ratio of 0.985 ± 0.03.
Sequence GAGCGTCGGA has a switch fluorescence ratio of 1.03 ± 0.12.
For ATATAAAGGG, the switch fluorescence ratio was 0.996 ± 0.025.
Sequence TTTTGGTTCG has a switch fluorescence ratio of 0.987 ± 0.032.
TGTGCTGGGT gave a switch fluorescence ratio of 1.02 ± 0.024.
ACGGGGATTG gave a switch fluorescence ratio of 1.02 ± 0.042.
GCTCAAAGTT was tested, and the switch fluorescence ratio was 0.99 ± 0.02.
With GGTATGGATC the switch fluorescence ratio was 0.9869 ± 0.0084.
In the case of AAAAATTTGT, the switch fluorescence ratio is reported as 0.993 ± 0.05.
TGAAGGAGTG gave a switch fluorescence ratio of 0.955 ± 0.038.
In the case of TCGAGATTAA, the switch fluorescence ratio is reported as 1.01 ± 0.024.
TTTATGGGGA showed a switch fluorescence ratio of 1 ± 0.02.
ACAGTGTGGG showed a switch fluorescence ratio of 1.05 ± 0.018.
TGGGGATCTC was tested, and the switch fluorescence ratio was 1.01 ± 0.024.
TGCTATTAGG showed a switch fluorescence ratio of 0.979 ± 0.045.
For GGGGGAATTA, the switch fluorescence ratio was 1.01 ± 0.029.
AGTGCGGGCG was tested, and the switch fluorescence ratio was 0.9895 ± 0.003.
CTGTTTGGTA was tested, and the switch fluorescence ratio was 1 ± 0.055.
Sequence TTGCTCAAGC has a switch fluorescence ratio of 0.999 ± 0.068.
Sequence CAAGTTGGCT has a switch fluorescence ratio of 0.987 ± 0.039.
In the case of TGGGTCCAGT, the switch fluorescence ratio is reported as 0.98 ± 0.011.
AGAGGCTAGG gave a switch fluorescence ratio of 1.01 ± 0.032.
TTTATCAGTG gave a switch fluorescence ratio of 0.987 ± 0.031.
GGTATAAGGA was tested, and the switch fluorescence ratio was 0.996 ± 0.016.
In the case of TATAATATTT, the switch fluorescence ratio is reported as 1 ± 0.021.
TGGTATAGTT gave a switch fluorescence ratio of 0.981 ± 0.049.
Sequence GTCGGTAAAC has a switch fluorescence ratio of 1.06 ± 0.014.
Work on CCATCTAGTT yielded a switch fluorescence ratio of 0.9681 ± 0.0047.
Work on TTGGTAAAAT yielded a switch fluorescence ratio of 0.978 ± 0.041.
With TAAACTCCA the switch fluorescence ratio was 1.05 ± 0.042.
Sequence TGGAGTAGGG has a switch fluorescence ratio of 0.9874 ± 0.0062.
AGGGTAATTG gave a switch fluorescence ratio of 0.998 ± 0.036.
Work on TTCATTGTCG yielded a switch fluorescence ratio of 0.929 ± 0.062.
ACGTGTAGGC gave a switch fluorescence ratio of 1.01 ± 0.04.
In the case of GAGAATGTGT, the switch fluorescence ratio is reported as 0.994 ± 0.012.
For TCATGCCCTT, the switch fluorescence ratio was 1.02 ± 0.033.
TGTTTTTGGT was tested, and the switch fluorescence ratio was 0.978 ± 0.016.
CTGTATGTCA was tested, and the switch fluorescence ratio was 0.99 ± 0.0098.
GTCATAGTGG gave a switch fluorescence ratio of 0.9804 ± 0.003.
With AGTTTAACTA the switch fluorescence ratio was 1 ± 0.025.
For AGCATTTATA, the switch fluorescence ratio was 0.981 ± 0.016.
Sequence TATTTTGGCG has a switch fluorescence ratio of 0.986 ± 0.025.
TCATTTATCA was tested, and the switch fluorescence ratio was 1 ± 0.053.
In the case of TTGTTTATTT, the switch fluorescence ratio is reported as 1.02 ± 0.032.
Sequence AGTTGGCGGG has a switch fluorescence ratio of 1.018 ± 0.005.
GTGTTGGTAT gave a switch fluorescence ratio of 1.01 ± 0.034.
For ATAGGTCTTA, the switch fluorescence ratio was 0.983 ± 0.04.
GGTTTGGGCG showed a switch fluorescence ratio of 1.03 ± 0.034.
CATATCTGAT gave a switch fluorescence ratio of 1.01 ± 0.041.
With GAATTATCAG the switch fluorescence ratio was 0.968 ± 0.045.
In the case of AAGCAGCTGT, the switch fluorescence ratio is reported as 1.01 ± 0.034.
Work on TGTGAGTAGG yielded a switch fluorescence ratio of 1.02 ± 0.017.
With TGCTTTGCCG the switch fluorescence ratio was 1.09 ± 0.072.
Work on GGTCGCTGCG yielded a switch fluorescence ratio of 0.9956 ± 0.0069.
Sequence CCGAAGGATT has a switch fluorescence ratio of 1.022 ± 0.0044.
CTAGGTTATG gave a switch fluorescence ratio of 0.978 ± 0.01.
Sequence GGGATATGTA has a switch fluorescence ratio of 1.01 ± 0.041.
CGTAGGGTTG showed a switch fluorescence ratio of 0.974 ± 0.057.
Sequence AGGGGTACAT has a switch fluorescence ratio of 1.01 ± 0.033.
GACTGAATAC gave a switch fluorescence ratio of 3.91 ± 1.9.
For GGATGGAAAT, the switch fluorescence ratio was 1.04 ± 0.012.
Work on TTCCTGGTGG yielded a switch fluorescence ratio of 1.05 ± 0.073.
For GATGATCGGG, the switch fluorescence ratio was 1.02 ± 0.013.
With CACATGTGCC the switch fluorescence ratio was 1.01 ± 0.021.
In the case of GTACCTATCG, the switch fluorescence ratio is reported as 1.01 ± 0.03.
In the case of ATCGCGGCCG, the switch fluorescence ratio is reported as 1.02 ± 0.04.
